These results are taken from article PMC4942345 (Organic & biomolecular chemistry, 2016).

Primed or numbered codes have the meaning given here. Where no end group is shown, it is not given here. [ ]: non-standard residue; d: D form. The star is where a group is joined. 4‑CBS″ = 4-carboxybenzylsulfonamide on the N-terminus, O=C(O)c1ccc(CS(=O)(=O)*)cc1; 4‑CBS = 4-carboxybenzylsulfonamide, O=C(O)c1ccc(CS(=O)(=O)*)cc1

Assay [1] addresses human carbonic anhydrase II (human, UniProt P00918 1-260). In words: SPR.
Assay [2] addresses human carbonic anhydrase I (human, UniProt P00915 1-261). In words: SPR. Background: Surface plasmon resonance follows binding to a sensor surface in real time, without labels.

Sequence of human carbonic anhydrase I (P00915 whole entry): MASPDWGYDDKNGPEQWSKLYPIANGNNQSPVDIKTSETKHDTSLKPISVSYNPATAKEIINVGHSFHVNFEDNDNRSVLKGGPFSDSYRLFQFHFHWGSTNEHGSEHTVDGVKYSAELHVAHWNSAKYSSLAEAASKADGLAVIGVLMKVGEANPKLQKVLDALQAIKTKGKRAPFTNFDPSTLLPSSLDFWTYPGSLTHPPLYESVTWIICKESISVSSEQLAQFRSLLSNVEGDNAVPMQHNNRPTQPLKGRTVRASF

With {4‑CBS″}-[dD][dL][dE][dE][dY]-NH2 [4-CBS-dleey], the dissociation constant (Kd) (commonly the constant that tells how readily two partners part at equilibrium) in assay [1] worked out at 88 nM; in assay [2] it was 116 nM.

On to {4‑CBS″}-[dD][dV][dD][dD][dL]-NH2 [4-CBS-dvddl], for which the Kd turned out to be 156 nM in assay [1] and 137 nM in assay [2].

Take {4‑CBS}-[dD][dV][dD][dV][dL] [4-CBS-dvdvl]: the figures for the Kd in assay [1] and in assay [2] were 82 nM and 83 nM, respectively.

On to {4‑CBS″}-[dD][dA][dD][dV][dL]-NH2 [4-CBS-dadvl], for which the equilibrium dissociation constant (Kd) stood at 185 nM in assay [1] and 130 nM in assay [2].

For the molecule {4‑CBS″}-[dD][dV][dE][dV][dL]-NH2 [4-CBS-dvevl], the figures for the dissociation constant (Kd) in assay [1] and in assay [2] were 82 nM and 151 nM, respectively.

Take {4‑CBS″}-[dD][dV][dD][dD][dY]-NH2 [4-CBS-dvddy]: the Kd in assay [1] stood at 82 nM; in assay [2], 102 nM.

For the molecule {4‑CBS}-[dD][dL][dD][dD][dW] [4-CBS-dlddw], the Kd in assay [1] is 22 nM; in assay [2], 25 nM.

With {4‑CBS″}-[dD][dV][dD][dE][dY]-NH2 [4-CBS-dvdey], the results for the Kd in assay [1] and in assay [2] were 63 nM and 55 nM, respectively.

Take {4‑CBS}-LKEYD [4-CBS-LKEYD]: the Kd in assay [1] worked out at 59 nM; in assay [2], 81 nM.

Take {4‑CBS″}-[dD][dV][dE][dY][dE]-NH2 [4-CBS-dveye]: the Kd worked out at 97 nM in assay [1] and 121 nM in assay [2].
